# Target: HLA-A*02 (human)
# Test: UV peptide-exchange ELISA, yield grade
row,Binder,peptide exchange yield [%]
1,ALFAPLVHL [ALFAPLVHL (SEQ ID NO: 60)],50 to 75
2,SLFETAWEA [SLFETAWEA (SEQ ID NO: 44)],50 to 75
3,ALNIATHVL [ALNIATHVL (SEQ ID NO: 49)],50 to 75
4,AIVKEIVNI [AIVKEIVNI (SEQ ID NO: 61)],20 to 49
5,ALFDSLRHV [ALFDSLRHV (SEQ ID NO: 6)],50 to 75
6,FLGPRIIGL [FLGPRIIGL (SEQ ID NO: 38)],50 to 75
7,SISDNVWEV [SISDNVWEV (SEQ ID NO: 19)],50 to 75
8,ALLERGELFV [ALLERGELFV (SEQ ID NO: 47)],50 to 75
9,GLLPLLHRA [GLLPLLHRA (SEQ ID NO: 12)],≥ 75
10,FLTAINYLL [FLTAINYLL (SEQ ID NO: 72)],50 to 75
11,GIAGSLKTV [GIAGSLKTV (SEQ ID NO: 10)],50 to 75
12,KLMPGTYTL [KLMPGTYTL (SEQ ID NO: 4)],≥ 75
13,ALMAMLVYV [ALMAMLVYV (SEQ ID NO: 13)],20 to 49
14,LLFSRLCGA [LLFSRLCGA (SEQ ID NO: 51)],≥ 75
15,ILDHEVPSL [ILDHEVPSL (SEQ ID NO: 7)],50 to 75
16,KLIFSVEAV [KLIFSVEAV (SEQ ID NO: 66)],50 to 75
17,FLLPFSTVYL [FLLPFSTVYL (SEQ ID NO: 35)],50 to 75
18,RLMEENWNA [RLMEENWNA (SEQ ID NO: 27)],50 to 75
19,ILLDLTDNRL [ILLDLTDNRL (SEQ ID NO: 18)],50 to 75
20,FLAVGLVDV [FLAVGLVDV (SEQ ID NO: 69)],50 to 75
21,QVIEDSTGV [QVIEDSTGV (SEQ ID NO: 48)],20 to 49
22,FVDPNTQEKV [FVDPNTQEKV (SEQ ID NO: 22)],20 to 49
23,AIQDEIRSV [AIQDEIRSV (SEQ ID NO: 21)],50 to 75
24,KLEENGDLYL [KLEENGDLYL (SEQ ID NO: 3)],≥ 75
25,GLSQITNQL [GLSQITNQL (SEQ ID NO: 20)],50 to 75
26,AVIKFLELL [AVIKFLELL (SEQ ID NO: 75)],50 to 75

row,Binder,peptide exchange yield [%]
1,SLADTNSLAVV [SLADTNSLAVV (SEQ ID NO: 36)],50 to 75
2,AMIEEVFEA [AMIEEVFEA (SEQ ID NO: 30)],20 to 49
3,NALDKVLSV [NALDKVLSV (SEQ ID NO: 81)],50 to 75
4,ILFHGVFYA [ILFHGVFYA (SEQ ID NO: 50)],50 to 75
5,HLLEGSVGV [HLLEGSVGV (SEQ ID NO: 39)],50 to 75
6,SLATKIVEA [SLATKIVEA (SEQ ID NO: 55)],50 to 75
7,LLYPEPWSV [LLYPEPWSV (SEQ ID NO: 1)],≥ 75
8,KLLDPQEFTL [KLLDPQEFTL (SEQ ID NO: 59)],50 to 75
9,AVGPVHNSV [AVGPVHNSV (SEQ ID NO: 76)],20 to 49
10,GIVAHIQEV [GIVAHIQEV (SEQ ID NO: 5)],50 to 75
11,KLYEADFVL [KLYEADFVL (SEQ ID NO: 80)],20 to 49
12,ILAKDLFEI [ILAKDLFEI (SEQ ID NO: 14)],≥ 75
13,ILAPFSVDL [ILAPFSVDL (SEQ ID NO: 37)],50 to 75
14,LLLGDSALYL [LLLGDSALYL (SEQ ID NO: 70)],50 to 75
15,FLHDEKEGIYI [FLHDEKEGIYI (SEQ ID NO: 56)],50 to 75
16,KMVGLVVAI [KMVGLVVAI (SEQ ID NO: 53)],50 to 75
17,SLFPDSLIV [SLFPDSLIV (SEQ ID NO: 64)],20 to 49
18,FLVDGSYSI [FLVDGSYSI (SEQ ID NO: 9)],50 to 75
19,LLDSVSRL [LLDSVSRL (SEQ ID NO: 42)],< 20
20,ALQEELTEL [ALQEELTEL (SEQ ID NO: 26)],50 to 75
21,ALSPSYLTV [ALSPSYLTV (SEQ ID NO: 11)],50 to 75
22,SLPNGKPVSV [SLPNGKPVSV (SEQ ID NO: 28)],50 to 75
23,SLFSDEFKV [SLFSDEFKV (SEQ ID NO: 23)],50 to 75
24,FLLATEVVTV [FLLATEVVTV (SEQ ID NO: 34)],≥ 75
25,ALFENTPKA [ALFENTPKA (SEQ ID NO: 41)],20 to 49
26,ALNPELVQA [ALNPELVQA (SEQ ID NO: 62)],20 to 49

# More lines, now with the values ahead:
row,peptide exchange yield [%],Binder
1,50 to 75,TMDSVLVTV [TMDSVLVTV (SEQ ID NO: 25)]
2,50 to 75,VLHSKFWVV [VLHSKFWVV (SEQ ID NO: 71)]
3,50 to 75,YLDLSHNQL [YLDLSHNQL (SEQ ID NO: 15)]
4,50 to 75,YIKTELISV [YIKTELISV (SEQ ID NO: 33)]
5,20 to 49,YTLREVDTV [YTLREVDTV (SEQ ID NO: 73)]
6,50 to 75,VQLDSIEDLEV [VQLDSIEDLEV (SEQ ID NO: 32)]
7,50 to 75,TLIDEQDIPLV [TLIDEQDIPLV (SEQ ID NO: 77)]
8,20 to 49,TVFTDHMLTV [TVFTDHMLTV (SEQ ID NO: 57)]
9,50 to 75,VLIDPQWVLTA [VLIDPQWVLTA (SEQ ID NO: 40)]
10,50 to 75,YLLPLLPAL [YLLPLLPAL (SEQ ID NO: 58)]
11,20 to 49,SQIPAQPSV [SQIPAQPSV (SEQ ID NO: 63)]
12,50 to 75,VLNPLITAV [VLNPLITAV (SEQ ID NO: 54)]
13,20 to 49,SQFPLPLAV [SQFPLPLAV (SEQ ID NO: 46)]
14,50 to 75,TLDEKVAEL [TLDEKVAEL (SEQ ID NO: 24)]
15,50 to 75,TLLQRLTEV [TLLQRLTEV (SEQ ID NO: 67)]
16,20 to 49,TVVTRLDEI [TVVTRLDEI (SEQ ID NO: 78)]
17,≥ 75,YTLDIPVLFGV [YTLDIPVLFGV (SEQ ID NO: 16)]
18,50 to 75,TLFGYSVVL [TLFGYSVVL (SEQ ID NO: 74)]
19,20 to 49,VTFKEYVTV [VTFKEYVTV (SEQ ID NO: 79)]
20,20 to 49,SVVPDVRSV [SVVPDVRSV (SEQ ID NO: 65)]
21,50 to 75,YLLDPSITL [YLLDPSITL (SEQ ID NO: 29)]
22,50 to 75,SLSNRLYYL [SLSNRLYYL (SEQ ID NO: 68)]
23,50 to 75,TITETTVEV [TITETTVEV (SEQ ID NO: 31)]

# Source: patent publication US20170165339A1 (IMMATICS BIOTECHNOLOGIES, published 2017)
